Laboratory results as given in the domain aggregation screens of Martell et al. (2025).

assay: soluble fraction after stress (log2 fold change); higher = more stays soluble; pooled small domains, quantitative proteomics; conditions: stress: 50 degC
Outline: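 Pooled custom libraries of small protein domains were each held under stress at 50°C. The read-out, high-throughput quantitative proteomics, tracked how much of each protein stayed soluble. This is reported as a base-two log fold change used to indicate aggregation propensity. Higher values mean more protein remains in solution.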

Row | Sequence | soluble fraction (log2)
1 | HMNSVAASLREISIKVSGTEDADKVSRLQELSQMPKLDASGIAEANTLLEQLRAKYGDLGLSVDTARGRIV | 0.284
2 | HMADGDIIPEGQRDATLASLAGSMRARGMTEAEILAALQVTNETRVRPPMALADLERIARSIGRYEPGK | 0.0818
3 | HMPKAPHETLSRREMEVLLLLSEGVTLTRIGDTIHVSVKTVSTYRARILQKLDLQSNAELTRYVLQHKL | -3.38
4 | HMTESFEFTMNDLVQNNLIMGSGAKERRIAVGEALGIGYTNAKQFLSRLNHYGITRKEFDDEIEKVNQN | -0.158
5 | HMEGLDDKTKIILFAGDKKEQEYSLADLKSKLNITENLTESELIKLLEKQGYVLDVNANNEFMFKKD | -0.0985
6 | HMEEITLIAEDEGLRLDTWLTDKLKDYSRSYIQKLMEDELVLVNGKARKANYRIKTGDEIHVSIPEPE | -0.0342
7 | HMSGNPLDTYYSKWSAEIKKGSPNAVISKEGDKYYVSIPGENRMAIIYENPHLIRMVNATRNIHVE | -0.168
8 | HMKSSISKNWNPSKDAIEILTRAGIDQEFLENLIPEFVIYWIERSDVLISYNSKFIEHARLKWAQHTAEIQ | -0.0223
9 | HMQGYELKMYVTPDTKYSVAVYDAKNEMVSYTMGFSAKAPFGQEGEVLETVKLEFDKLAVGNYELKYWI | 0.314
10 | HMRRSLIGPTVRERRRALGITQSRLAAEVGISASYLNLIEGDKRNIGGALLQRIAGALGLALD | -2.74
11 | HMGSLKEKIVLLEKLYQQNPSEEIKLLLINTYQLNHQYIQARKLFFTLTPEQKEKLPLASEFLIFL | -0.871
12 | HMEVLSKRGSTGTEVINIQKKLKNWGYYTGSVDGIYGKLTEEAVRYFQRTNGLTVDGIAGKNTLAAMGIA | -0.356
13 | HMSTFAQNLRALMEKRGVSQNELARSAGLTQSAINKILTGKTKQPGIDTTEAIARVLNVSVAQLIYT | -0.303
14 | HMTKSIDFDFREDGVYIKADKDVTIVDIVTKIDLRRIQSVDLTKIKQMLEIGSLDNWIKIAEPQMEK | 0.0472
15 | HMRKMNDAVFYVEMSRPKRGYYTATYKLITRNPNSLPEHEITRRFFQMLEETIRKNPPYYLWTH | -0.328
16 | HMLPDYLIELKKKADSGDAVSQNDIGNIYLYGLPRVNIYPDEKNIGIGIDYLYKAAWQDQVNAMTTI | -0.0456

Row | Sequence | soluble fraction (log2)
17 | HMPVQSNRDALLDIGQTLQVQAWDAQGSARVSYRGSDWTAEFRGPGAAAPGLHRIIAVQGNRLIVEPA | 0.174
18 | HMARKISVEALGKYFPNSPMLAAAVAVTGVMKKDEFIHEMRASYKHKFAKKPEVIDGNMKALTMTFEA | -0.126
19 | HMKSLPQKLLAYLESQGLTRDEAGEFVKQGLKITSNDVDQIQLLLANTEVIDIKLQEFIAQK | 0.217
20 | HMESSNLESQLKKGIVPNLNGLSAKDALFLLENSGFNVKLYGMGSVKKQSLEAGKKYNKGDKITLIL | 0.112
21 | HMEMKVIPFNQMTRDQFDQLDRFLGRLAAAQAMGSLRLTKAQQNYFLNQVKQLDLYRKRILN | -0.787
22 | HMYYHQIIGLDVVDENGNTLGKIKEILSPGANDVWVVKRKQKNDLLLPVIDDVIKDVDLAAGKVHVELLEG | -0.0975
23 | HMEAVIENAAIIKQNSGGYAVRATVNGVDLGMKPVERATALLYFSLTDKLEKDRLLSHTLQKTYGDLSA | -0.254
24 | HMKTLPADPTVKNFSYTVVDGEIYYRENSIMTQIELSDNAKGRVAGMVELRQIVNELIDQQLND | -0.896
25 | HMFYNSSDNAYKILEINKSATVDEIKAAYRKMAKKYHPDKVIHLGQEHQKGAEEKFRQVQEAYEELQKERG | 0.0887
26 | HMTISAQAITPRLEVIKNFVLMEEWDAAQTQLEKLRSFTEIWSLDPLFSAMKKKDGQKISDWITGFIKDNM | -1.15
27 | HMLLGDYIQKLRNQRGLSQQEFADKLGIGRSTLANYEQNKRSPDYETLIEISKFFNVSIDELLGV | -0.484
28 | HMNTVSVGNLGLSVRAVNALKQAGIDTYDKLQELSWEELLLIPKLGQVTAAEIYRFITSYKKG | -0.552
29 | HMVLANLQAAEQGDLGIKEGEKLTILQTRPDGWWTARNANGETGLVPK | 0.173
30 | HMSKRDDLLDQASEWLAKLDRDLTVVEERELKAWLGESAAHRETFIQMAKLWDKMESLSRLTDL | -0.397
31 | HMTIATLGERIRKLRKERGLTLAELAGDKLSKGMLSLIENNRAKPSMESLEYIAKRLGVEPAELLE | 0.176
